Data as given in patent publication EP1688435A1 (Boehringer Ingelheim International GmbH, dated 2006).

What was measured:
Experiment in all cases: immunoprecipitation with myc antibodies, SDS-PAGE and silver staining (Figure 3B)
[1] = target: T1, human cohesin subunit SA2 (cell-cycle state not stated) (human, UniProt Q8N3U4 1-1231)
T1 construct: Endogenous protein from HeLa cells
T1 sequence: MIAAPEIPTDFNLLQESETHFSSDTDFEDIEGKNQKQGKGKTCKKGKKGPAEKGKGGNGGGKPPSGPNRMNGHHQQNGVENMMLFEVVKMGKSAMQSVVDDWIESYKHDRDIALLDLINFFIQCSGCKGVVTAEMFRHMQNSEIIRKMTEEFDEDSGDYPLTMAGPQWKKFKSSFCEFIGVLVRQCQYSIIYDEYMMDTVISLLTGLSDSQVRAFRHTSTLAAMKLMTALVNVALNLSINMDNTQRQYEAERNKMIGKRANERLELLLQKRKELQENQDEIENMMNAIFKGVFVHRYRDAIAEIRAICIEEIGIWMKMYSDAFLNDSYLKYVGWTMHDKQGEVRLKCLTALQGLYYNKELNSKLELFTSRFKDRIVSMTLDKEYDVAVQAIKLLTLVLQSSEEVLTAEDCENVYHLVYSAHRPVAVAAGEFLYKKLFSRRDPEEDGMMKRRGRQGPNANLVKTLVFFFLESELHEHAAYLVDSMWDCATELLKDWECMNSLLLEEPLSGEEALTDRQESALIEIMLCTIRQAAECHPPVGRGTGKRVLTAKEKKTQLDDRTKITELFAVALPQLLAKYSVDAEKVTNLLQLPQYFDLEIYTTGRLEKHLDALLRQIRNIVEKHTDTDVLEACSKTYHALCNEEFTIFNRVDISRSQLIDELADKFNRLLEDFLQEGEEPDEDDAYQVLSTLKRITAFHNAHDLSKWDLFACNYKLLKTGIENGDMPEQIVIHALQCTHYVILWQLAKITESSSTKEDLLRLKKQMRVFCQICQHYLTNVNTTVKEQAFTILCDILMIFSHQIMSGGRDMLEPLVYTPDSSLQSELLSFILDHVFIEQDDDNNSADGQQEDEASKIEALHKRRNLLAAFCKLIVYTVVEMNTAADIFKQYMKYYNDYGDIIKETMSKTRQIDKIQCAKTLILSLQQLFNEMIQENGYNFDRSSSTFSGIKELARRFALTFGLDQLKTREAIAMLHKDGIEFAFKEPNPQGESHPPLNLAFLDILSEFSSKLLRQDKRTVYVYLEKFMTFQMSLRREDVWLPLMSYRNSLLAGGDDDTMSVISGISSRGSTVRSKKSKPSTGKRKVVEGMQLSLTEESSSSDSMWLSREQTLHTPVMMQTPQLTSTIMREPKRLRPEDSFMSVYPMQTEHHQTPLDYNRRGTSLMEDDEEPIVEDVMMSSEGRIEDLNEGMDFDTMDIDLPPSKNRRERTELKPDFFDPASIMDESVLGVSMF

[2] = target: human cohesin subunit Smc3 (human, UniProt Q9UQE7 1-1217)
Chain of human cohesin subunit Smc3 (Q9UQE7 whole entry): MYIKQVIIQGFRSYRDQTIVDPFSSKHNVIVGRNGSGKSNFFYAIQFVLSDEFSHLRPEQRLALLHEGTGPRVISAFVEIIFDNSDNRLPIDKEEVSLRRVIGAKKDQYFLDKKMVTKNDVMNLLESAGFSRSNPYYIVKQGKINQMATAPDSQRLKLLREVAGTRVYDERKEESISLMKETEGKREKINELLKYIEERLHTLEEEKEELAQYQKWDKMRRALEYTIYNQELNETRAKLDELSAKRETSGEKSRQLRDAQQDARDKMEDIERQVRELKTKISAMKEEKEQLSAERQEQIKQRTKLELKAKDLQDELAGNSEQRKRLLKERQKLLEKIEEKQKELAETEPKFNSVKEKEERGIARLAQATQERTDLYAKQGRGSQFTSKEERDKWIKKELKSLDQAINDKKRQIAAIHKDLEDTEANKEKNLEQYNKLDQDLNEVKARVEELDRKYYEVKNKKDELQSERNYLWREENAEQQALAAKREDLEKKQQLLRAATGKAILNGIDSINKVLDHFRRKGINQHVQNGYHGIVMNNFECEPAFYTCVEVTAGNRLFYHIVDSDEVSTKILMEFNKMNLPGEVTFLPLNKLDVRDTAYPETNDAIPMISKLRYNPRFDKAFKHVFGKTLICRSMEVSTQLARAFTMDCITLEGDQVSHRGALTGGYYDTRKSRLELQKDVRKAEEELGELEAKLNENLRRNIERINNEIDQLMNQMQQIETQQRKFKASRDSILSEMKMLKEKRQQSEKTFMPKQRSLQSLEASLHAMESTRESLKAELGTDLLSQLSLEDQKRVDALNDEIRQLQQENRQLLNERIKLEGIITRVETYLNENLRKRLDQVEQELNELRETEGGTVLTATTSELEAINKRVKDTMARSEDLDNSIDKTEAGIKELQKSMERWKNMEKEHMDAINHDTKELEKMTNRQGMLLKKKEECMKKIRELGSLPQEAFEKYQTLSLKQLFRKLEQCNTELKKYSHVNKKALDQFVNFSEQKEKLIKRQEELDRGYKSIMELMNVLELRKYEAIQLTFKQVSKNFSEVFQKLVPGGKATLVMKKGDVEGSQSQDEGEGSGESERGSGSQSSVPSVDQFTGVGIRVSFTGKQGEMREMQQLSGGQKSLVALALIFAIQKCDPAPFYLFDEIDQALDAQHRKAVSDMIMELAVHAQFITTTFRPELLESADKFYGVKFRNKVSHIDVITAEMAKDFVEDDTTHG

[3] = target: T2, human cohesin subunit Smc1 (human, UniProt Q14683 1-1233)
T2 construct: also called Smcl
T2 sequence (looked up): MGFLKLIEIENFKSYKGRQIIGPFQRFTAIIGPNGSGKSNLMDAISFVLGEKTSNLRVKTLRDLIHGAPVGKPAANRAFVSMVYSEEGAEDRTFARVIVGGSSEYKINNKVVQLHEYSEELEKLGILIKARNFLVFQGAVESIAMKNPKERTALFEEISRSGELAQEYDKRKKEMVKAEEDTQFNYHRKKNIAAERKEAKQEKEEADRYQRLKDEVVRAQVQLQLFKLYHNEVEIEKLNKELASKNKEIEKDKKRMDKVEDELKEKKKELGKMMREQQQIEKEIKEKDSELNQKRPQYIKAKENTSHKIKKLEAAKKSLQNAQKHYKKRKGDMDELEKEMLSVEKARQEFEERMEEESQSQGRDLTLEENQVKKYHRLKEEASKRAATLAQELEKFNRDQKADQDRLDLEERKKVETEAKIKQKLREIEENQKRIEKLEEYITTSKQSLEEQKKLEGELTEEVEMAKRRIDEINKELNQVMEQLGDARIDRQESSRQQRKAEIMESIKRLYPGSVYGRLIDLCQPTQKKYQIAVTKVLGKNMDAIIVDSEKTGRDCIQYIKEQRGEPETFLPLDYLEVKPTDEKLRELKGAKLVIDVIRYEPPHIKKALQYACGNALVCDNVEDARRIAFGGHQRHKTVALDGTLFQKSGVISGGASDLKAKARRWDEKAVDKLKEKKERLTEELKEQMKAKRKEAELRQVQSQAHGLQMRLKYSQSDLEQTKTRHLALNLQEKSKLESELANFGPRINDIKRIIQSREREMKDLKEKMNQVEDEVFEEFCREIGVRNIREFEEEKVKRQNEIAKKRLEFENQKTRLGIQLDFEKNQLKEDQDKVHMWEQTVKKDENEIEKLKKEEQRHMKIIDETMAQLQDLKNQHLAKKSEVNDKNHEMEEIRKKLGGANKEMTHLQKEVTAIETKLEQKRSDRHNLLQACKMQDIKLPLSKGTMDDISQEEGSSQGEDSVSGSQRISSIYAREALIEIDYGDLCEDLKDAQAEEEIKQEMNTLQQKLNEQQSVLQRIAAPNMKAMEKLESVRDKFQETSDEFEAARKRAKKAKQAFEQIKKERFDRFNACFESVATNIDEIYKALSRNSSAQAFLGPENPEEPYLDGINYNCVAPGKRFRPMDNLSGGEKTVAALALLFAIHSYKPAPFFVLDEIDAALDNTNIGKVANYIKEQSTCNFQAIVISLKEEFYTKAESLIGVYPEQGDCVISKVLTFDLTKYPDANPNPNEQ

[4] = target: T3, human cohesin subunit SA1 (cell-cycle state not stated) (human, UniProt Q8WVM7 1-1258)
T3 sequence (looked up): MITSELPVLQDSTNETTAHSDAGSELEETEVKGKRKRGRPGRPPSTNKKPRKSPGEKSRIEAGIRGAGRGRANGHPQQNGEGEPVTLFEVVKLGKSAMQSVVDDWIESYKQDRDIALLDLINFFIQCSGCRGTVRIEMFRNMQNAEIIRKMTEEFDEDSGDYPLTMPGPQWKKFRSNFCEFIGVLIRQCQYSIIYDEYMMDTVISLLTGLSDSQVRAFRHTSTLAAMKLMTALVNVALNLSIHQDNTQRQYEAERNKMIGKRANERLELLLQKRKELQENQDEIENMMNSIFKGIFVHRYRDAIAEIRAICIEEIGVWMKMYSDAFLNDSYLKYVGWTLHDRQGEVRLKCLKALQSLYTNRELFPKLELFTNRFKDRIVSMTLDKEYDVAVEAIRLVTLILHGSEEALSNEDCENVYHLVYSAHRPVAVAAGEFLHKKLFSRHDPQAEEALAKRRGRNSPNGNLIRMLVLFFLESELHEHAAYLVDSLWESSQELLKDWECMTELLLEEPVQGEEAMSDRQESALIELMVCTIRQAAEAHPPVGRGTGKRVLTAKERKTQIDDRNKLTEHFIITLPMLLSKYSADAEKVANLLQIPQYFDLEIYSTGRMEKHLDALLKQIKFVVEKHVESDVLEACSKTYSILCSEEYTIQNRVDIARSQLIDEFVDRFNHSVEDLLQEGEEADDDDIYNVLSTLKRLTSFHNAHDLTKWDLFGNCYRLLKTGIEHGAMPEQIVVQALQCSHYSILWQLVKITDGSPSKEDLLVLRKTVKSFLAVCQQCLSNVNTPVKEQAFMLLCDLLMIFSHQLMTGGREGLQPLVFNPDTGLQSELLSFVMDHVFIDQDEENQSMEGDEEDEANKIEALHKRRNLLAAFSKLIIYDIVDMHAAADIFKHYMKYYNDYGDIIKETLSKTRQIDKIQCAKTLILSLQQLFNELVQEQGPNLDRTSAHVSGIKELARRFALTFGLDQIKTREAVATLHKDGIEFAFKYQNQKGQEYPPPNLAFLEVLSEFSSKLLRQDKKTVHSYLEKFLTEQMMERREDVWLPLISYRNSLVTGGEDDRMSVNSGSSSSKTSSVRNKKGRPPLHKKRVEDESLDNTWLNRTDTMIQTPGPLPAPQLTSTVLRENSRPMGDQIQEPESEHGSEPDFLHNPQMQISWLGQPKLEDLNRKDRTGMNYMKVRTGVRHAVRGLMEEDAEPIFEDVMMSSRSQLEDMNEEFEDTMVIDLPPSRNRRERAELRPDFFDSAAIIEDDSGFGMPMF

Measured: binding result

B1: Scc1-S454A-myc expressed in HeLa tet-on cells (cell-cycle state not stated) (other)
chain: MFYAHFVLSKRGPLAKIWLAAHWDKKLTKAHVFECNLESSVESIISPKVKMALRTSGHLLLGVVRIYHRKAKYLLADCNEAFIKIKMAFRPGVVDLPEENREAAYNAITLPEEFHDFDQPLPDLDDIDVAQQFSLNQSRVEEITMREEVGNISILQENDFGDFGMDDREIMREGSAFEDDDMLVSTTTSNLLLESEQSTSNLNEKINHLEYEDQYKDDNFGEGNDGGILDDKLISNNDGGIFDDPPALSEAGVMLPEQPAHDDMDEDDNVSMGGPDSPDSVDPVEPMPTMTDQTTLVPNEEEAFALEPIDITVKETKAKRKRKLIVDSVKELDSKTIRAQLSDYSDIVTTLDLAPPTKKLMMWKETGGVEKLFSLPAQPLWNNRLLKLFTRCLTPLVPEDLRKRRKGGEADNLDEFLKEFENPEVPREDQQQQHQQRDVIDEPIIEEPSRLQEAVMEASRTNIDESAMPPPPPQGVKRKAGQIDPEPVMPPQQVEQMEIPPVELPPEEPPNICQLIPELELLPEKEKEKEKEKEDDEEEEDEDASGGDQDQEERRWNKRTQQMLHGLQRALAKTGAESISLLELCRNTNRKQAAAKFYSFLVLKKQQAIELTQEEPYSDIIATPGPRFHII
notes: not shown: 9xmyc tag at the C-terminus
binds: all assays above
